Assays:
[1] = biological target: T1, type I IL-1R (Homo sapiens, UniProt P14778); conditions: read-out: Kd, binding to type I IL-1R; cited from earlier work
T1 sequence (P14778 18-569): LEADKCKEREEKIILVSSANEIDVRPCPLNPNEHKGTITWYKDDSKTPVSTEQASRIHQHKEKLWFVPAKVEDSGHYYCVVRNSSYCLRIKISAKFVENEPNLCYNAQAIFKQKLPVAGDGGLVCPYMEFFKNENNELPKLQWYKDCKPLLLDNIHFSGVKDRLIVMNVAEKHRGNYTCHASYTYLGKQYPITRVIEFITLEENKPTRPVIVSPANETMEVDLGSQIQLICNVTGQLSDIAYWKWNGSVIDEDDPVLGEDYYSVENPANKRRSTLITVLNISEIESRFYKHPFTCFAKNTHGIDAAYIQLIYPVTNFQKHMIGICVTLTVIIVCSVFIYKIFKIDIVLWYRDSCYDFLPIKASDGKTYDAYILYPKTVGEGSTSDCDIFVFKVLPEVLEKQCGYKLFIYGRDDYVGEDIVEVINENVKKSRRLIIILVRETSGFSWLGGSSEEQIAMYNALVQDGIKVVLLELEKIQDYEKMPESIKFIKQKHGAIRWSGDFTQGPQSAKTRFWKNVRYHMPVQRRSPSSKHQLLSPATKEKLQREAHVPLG

[2] = cited from earlier work
[3] = biological target: T2, type II IL-1R (Homo sapiens, UniProt P27930); conditions: read-out: Kd, binding to type II IL-1R; cited from earlier work
T2 sequence (P27930 14-398): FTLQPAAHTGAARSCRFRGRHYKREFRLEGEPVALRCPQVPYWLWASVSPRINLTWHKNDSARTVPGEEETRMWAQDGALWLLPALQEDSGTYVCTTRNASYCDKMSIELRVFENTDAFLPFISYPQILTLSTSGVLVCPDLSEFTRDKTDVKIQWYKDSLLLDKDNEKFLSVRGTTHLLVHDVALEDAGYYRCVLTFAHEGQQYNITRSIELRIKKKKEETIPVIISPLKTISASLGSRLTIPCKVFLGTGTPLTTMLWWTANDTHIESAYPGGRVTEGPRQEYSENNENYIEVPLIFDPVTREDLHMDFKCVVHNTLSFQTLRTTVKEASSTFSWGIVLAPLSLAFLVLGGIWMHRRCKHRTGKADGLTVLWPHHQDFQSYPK

[4] = system: IL-1Ra; experiment: IL-1Ra expression and release in human islets; type: cell-based; conditions: for IL-1Ra released into the culture medium and IL-1Ra mRNA: 10 to 500 nM leptin
Method: Islet isolation and cell culture. Islets were isolated from pancreases of ten organ donors at the Department of Surgery, University of Geneva Medical Center, as described (32-34). The islet purity was >95%, as judged by dithizone staining (if this degree of purity was not primarily achieved by routine isolation, islets were handpicked). […] For long-term in vitro studies, the islets were cultured on extracellular matrix-coated plates derived from bovine corneal endothelial cells (Novamed Ltd., Jerusalem, Israel), allowing the cells to attach to the dishes and spread, preserving their functional integrity (7;35). Islets were cultured in CMRL 1066 medium containing 100 U/ml penicillin, 100 μg/ml streptomycin and 10% fetal calf serum (Invitrogen Corporation, Paisley, U.K.), hereafter referred to as culture medium. Two days after plating, when most islets were attached and began to flatten, the medium was changed to culture medium containing 5.5, 11.1 or 33.3 mM glucose. In some experiments, islets were additionally cultured with 5, 10 or 500 nM rh leptin (PeproTech, London, UK), 500 ng/ml rh IL-1Ra (R&D Systems Inc., Minneapolis, Minn.) or 50 nM small interfering RNA (siRNA) as described below.
RNA interference. RNAs of 21 nucleotides, designed to target human IL-1Ra (5′AUCUGCAGAGGCCUCCGCAtt3′/5′UGCGGAGGCCUCUGCAGAUtt3′) and scrambled siRNA were synthesized by Ambion (Austin, Tex.). siRNAs were transfected using SiPortAmine™ according to the manufacturer's instructions (Ambion).
Detection of IL-1Ra and IL-1β expressing cells. Pancreases from routine necropsies were immersion-fixed in formalin, followed by paraffin embedding. In parallel, isolated human were cultured in a suspension for 48 hours and exposed to 10 nM leptin or 33.3 mM glucose, islets were fixed in Bouin solution for 15 min, resuspended in 40 μl of 2% melted agarose in PBS (40° C.), followed by rapid centrifugation and paraffin embedding. Sections were deparaffinized, rehydrated and then incubated in methanol for 4 min. Human islets cultured on extracellular matrix for 4 days were washed in PBS, fixed in 4% paraformaldehyde (30 min, room temperature) followed by permeabilization with 0.5% triton X-100 (4 min, room temperature). Pancreas and islet sections and cultured cells were double-labeled for IL-1Ra or IL-1β and insulin, CD68, glucagon or somatostatin by 1 h of exposure to 10% bovine serum albumin followed by incubation (1 h, 37° C.) with biotinylated goat anti-IL-1Ra or mouse anti-IL-1β antibodies (R&D Systems Inc.). Detection was performed using cy3-(Jackson, ImMunoResearch Laboratories, West Grove, Pa.) or cy2-(Transduction Lab., Lexington, Ky.) conjugated streptavidin. […]

Row | Substance | Kd [1] [nM] | patients with infections ([2]; human, in vivo) [%] | patients with serious infections ([2]; human, in vivo) [%] | patients developing neutropenia (absolute neutrophil count 1×10^9/l or less) ([2]; placebo-controlled trials, rheumatoid arthritis) [%] | patients requiring discontinuation of treatment (injection site reactions) ([2]; rheumatoid arthritis patients) | most commonly reported adverse effects ([2]; subcutaneous treatment, rheumatoid arthritis patients) | Kd [3] [nM] | IL-1Ra expression in β-cells (double immunostaining) ([4]; 10 nM leptin, 48 hours) | IL-1Ra released into the culture medium and IL-1Ra mRNA ([4]; 15 hours) | IL-1Ra released into the culture medium and IL-1Ra mRNA ([4]; 48 hours) | IL-1Ra protein (Western blot) ([4]; leptin, 15-hour exposure)
1 | Interleukin 1 receptor antagonist [IL-1Ra] | 0.2 | 40 | 1.8 | 0.3 | up to 5% | Injection site reactions | 7 | – | – | – | –
2 | leptin: rh leptin (PeproTech); protein encoded by the ob gene | – | – | – | – | – | – | – | decreased IL-1Ra expression in most β-cells | increased | marked decrease | decreased IL-1Ra already after a 15-hour exposure
